Assay results as given in US10376603B2, “Engineered fluorinated biomaterials” (New York University, priority 2015, dated 2019).

Tests used:
Type in all cases: physicochemical
[1] = UV-Vis temperature transition (Tt) at 320 nm; conditions: 50 mM Na2HPO4, 0.5 M NaCl, pH 8.0
Protocol: Proteins were characterized for their temperature transition (Tt) behavior at a wavelength of 320 nm using a UV-Vis Cary-50 (Varian Inc., Cary, N.C.) equipped with a TC125 temperature regulator (Quantum Northwest, Liberty Lake, Wash.). Samples were heated at a rate of 1° C./minute from 15° C. to 85° C. The Tt was determined by taking the first derivative of the normalized absorbance (320 nm) as a function of temperature.

[2] = Dynamic light scattering as a function of temperature; conditions: doxorubicin loaded versus unloaded
Protocol: Dynamic light scattering (DLS) measurements were performed on a Zetasizer Nano Series model Nano ZS90 in a type 21 quartz cuvette with the applied settings: material protein (refractive index 1.450), absorption 0.001, dispersant PBS with a viscosity of 1.0200 cP and refractive index of 1.335. Measurements were taken in triplicates, conducting 10 runs for each measurement, with a delay time of 2 seconds. Approximately, 1.0 mL of 0.5, 0.75 or 1.0 mg/mL CE2-RGD-TFL or CE2-RGD in 50 mM Na2HPO4, 0.5 M NaCl, pH 8.0 was then added to the cell.

[3] = Transmission electron microscopy of particles; conditions: 0.5 mg/mL
Protocol: Transmission electron microscopy (TEM) experiments were undertaken to visualize and confirm particle sizes. The CE2-RGD-TFL (0.5 mg/mL) was heated to 20° C. or 50° C. for 1.5 hours followed by application of the protein onto copper square mesh TEM grids and 1% uranyl acetate negative staining. The TEM grids were imaged using a FEI Titan Halo 300 kV electron microscope.

[4] = Doxorubicin loading/encapsulation by gel filtration and absorbance at 485 nm; conditions: 100 μM free doxorubicin, 4° C., 2 hours
Protocol: A mixture of 100 μM free doxorubicin (DOX) (see the extraction method below) and either CE2-RGD or CE2-RGD-TFL and standards (100 μM, 75 μM, 50 μM, 25 μM, 10 μM, 5 μM and 0 μM) were incubated at 4° C. for 2 hours in the dark. After this incubation period, the mixtures were subjected to G-25 Sephadex (Sigma-Aldrich) gel filtration chromatography with fifteen elutions of 50 mM Na2HPO4, 0.5 M NaCl, pH 8.0 at room temperature. The eluted fractions were subjected to absorbance readings ranging from 420-600 nm (Molecular Devices Spectramax M2). The eluted fraction with highest absorbance reading at 485 nm was incorporated in the standard curve trendline equation to determine the total concentration of DOX bound to the protein. That protein sample was also subjected to the BCA assay enhanced protocol to determine the total protein concentration.
Extraction of DOX from a doxorubicin-HCl (DOX-HCl) was required to achieve free hydrophobic doxorubicin for pore encapsulation. […] The final concentration of free DOX was determined by generating a standard curve from absorbance of DOX-HCl from 420-600 nm and incorporating the free DOX into the trendline equation. The absorbance measurement for free DOX concentration determination was taken at 485 nm.

[5] = Circular dichroism secondary structure
Protocol: Circular dichroism (CD) spectroscopy was used to confirm the secondary structure. This was accomplished using a Jasco J-815 CD spectrometer with a PTC-423 S single position Peltier temperature control system. For CD experiments assessing the protein structure alone, protein concentrations were kept constant at 0.200 mg/mL in of 50 mM Na2HPO4, 0.5 M NaCl, pH 8.0. The wavelength spectrum was measured over the range of 200-300 nm with a bandwidth (step size) of 1 nm. The scanning mode was continuous at 20 nm/minute. All wavelength CD runs were conducted at 4° C.
In terms of calculations for CD analysis, molar residue ellipticity (θMRE) was calculated from ellipticity (θ) using the following equation: (1) θMRE=θ/(10*Protein Conc.*Path Length*Length of Sequence)

B1: CE2-RGD-TFL: fluorinated protein block copolymer, SEQ ID NO:18: COMPcc domain flanked by RGD linkers plus elastin-like domain; all 11 leucines as 5,5,5-trifluoroleucine (protein)
chain: MRGSHHHHHHGSACELAARGDATATATATAACGDLAPQMLRELQETNAALQDVRELLRQQVKEITFLKNTVMESDASGLQAARGDATATATATAVDKPIAASAVPGVGVPGVGVPGFGVPGVGVPGVGVPGVGVPGVGVPGFGVPGVGVPGVGVPLEGSGTGAKLN
modifications: all leucines as 5,5,5-trifluoroleucine
notes: all 11 leucines as 5,5,5-trifluoroleucine
Tt (transition temperature) ([1]; Conc. 0.20 mg/mL): 52.04 ± 0.84 °C | Tt (transition temperature) ([1]; Conc. 0.50 mg/mL): 47.87 ± 0.72 °C | Tt (transition temperature) ([1]; Conc. 0.75 mg/mL): 46.36 ± 0.03 °C | Tt (transition temperature) ([1]; Conc. 1.00 mg/mL): 45.71 ± 0.51 °C | onset of temperature-driven coacervation (DLS) upon loading of doxorubicin [2]: delay in the onset of temperature-driven coacervation | particle appearance (TEM) ([3]; 50° C. for 1.5 hours): amorphous aggregates of no discernible uniformity in size | particle diameter (TEM) ([3]; 1.5 hour incubation at 20° C.): 30 nm | available doxorubicin encapsulated upon saturation [4]: 49.1% | doxorubicin loading per milligram of protein [4]: 29.90±2.68 μg per milligram | secondary structure (circular dichroism) versus CE2-RGD ([5]; 0.200 mg/mL, 4° C.): less structure | secondary structure (circular dichroism) upon loading of doxorubicin ([5]; doxorubicin loaded versus unloaded): increase in secondary structure
